Results: publication PMC9352680, “A comprehensive thermodynamic model for RNA binding by the Saccharomyces cerevisiae Pumilio protein PUF4”

T1: PUF4 RNA-binding domain (Saccharomyces cerevisiae, UniProt P25339 537-888)
T1 sequence: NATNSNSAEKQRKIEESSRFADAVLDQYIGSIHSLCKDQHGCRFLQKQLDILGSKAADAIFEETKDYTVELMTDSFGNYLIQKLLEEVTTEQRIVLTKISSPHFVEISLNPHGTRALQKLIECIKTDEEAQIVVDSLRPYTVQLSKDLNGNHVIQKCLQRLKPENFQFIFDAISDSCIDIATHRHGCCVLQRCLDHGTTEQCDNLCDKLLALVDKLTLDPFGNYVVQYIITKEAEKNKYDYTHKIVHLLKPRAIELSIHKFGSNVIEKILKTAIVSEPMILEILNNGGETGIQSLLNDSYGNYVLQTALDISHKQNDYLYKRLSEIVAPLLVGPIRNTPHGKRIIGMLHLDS


Target: T1, PUF4 RNA-binding domain
Assay: Mg; RNA-MaP; 20 mM Na-HEPES pH 7.4, 30 mM KOAc, 0.75 mM MgCl2, 0.1% Tween-20, 5% glycerol, 0.1 mg/mL BSA, 2 mM DTT; 25 C; 0.0125-409.6 nM protein
Details: tags: N-His6-TEV cleaved; C-SNAP kept, Cy3B-labelled; label: tethered on chip by stalled RNA polymerase

First: UCUCUUUGUAUGGCAUUCUCUU (ssRNA) [Ic_S1_P5E.1_K5.1_C5.1_H5.1_A5.1_[T6G]_[A7G]_F5.1_[T8C]_[T9A]_[A10T]_T5.1]
Second: UCUCUUUGUAUGUCCAUCUCUU (ssRNA) [Ic_S1_P5E.1_K5.1_C5.1_H5.1_A5.1_[T6G]_[A7T]_F5.1_[T8C]_[T9C]_T5.1]
The Kd of the first is 2.9-fold higher: 1040 nM for the first, 363 nM for the second. The second binds more tightly here.

Compared with UCUCUUUGUACGUCAUUCUCUU (ssRNA) [Ic_S1_P5E.1_K5.1_C5.1_H5.1_A5.1_[T5C]_[T6G]_[A7T]_F5.1_[T8C]_[T9A]_[A10T]_T5.1], UCUCUUUGUAUUGCCAUCUCUU (ssRNA) [Ic_S1_P5E.1_K5.1_C5.1_H5.1_A5.1_[A7G]_F5.1_[T8C]_[T9C]_T5.1] is 9.9-fold higher in Kd: 96.5 nM for the first, 955 nM for the second.

Going from UCUCUUUGUAUCUUUCUCUU (ssRNA) [Ic_S1_P3E.1_K3.1_C3.1_H3.1_A3.1_[A6C]_F3.1_[A8T]_T3.1] to UCUCUUUGUACUUCUAUCUCUU (ssRNA) [Ic_S1_P5E.1_K5.1_C5.1_H5.1_A5.1_[T5C]_[A7T]_F5.1_[T8C]_T5.1], the Kd falls from 32.3 nM to 7.77 nM (4.2-fold).

Compared with UCUCUUUGUAAAAUUUUCUCUU (ssRNA) [Ic_S1_P5E.1_K5.1_C5.1_H5.1_A5.1_[T5A]_[T6A]_F5.1_[A10T]_T5.1], UCUCUUUGUAUCGCCGUCUCUU (ssRNA) [Ic_S1_P5E.1_K5.1_C5.1_H5.1_A5.1_[T6C]_[A7G]_F5.1_[T8C]_[T9C]_[A10G]_T5.1] is higher in Kd: 23.8 nM for the first, > 2300 nM for the second. The first binds more tightly here.

Compared with UCUCUUUGUAAGCUUUUCUCUU (ssRNA) [Ic_S1_P5E.1_K5.1_C5.1_H5.1_A5.1_[T5A]_[T6G]_[A7C]_F5.1_[A10T]_T5.1], UCUCUUGUUAUAUAUCUCUU (ssRNA) [Ib_S1_P3E.1_K3.1_C3.1_H3.1_[T1G]_[G2T]_A3.1_F3.1_T3.1] is 14-fold lower in Kd: 643 nM for the first, 47 nM for the second. The second binds more tightly here.

First: UCUCUUUGUAUUCCCAUCUCUU (ssRNA) [Ic_S1_P5E.1_K5.1_C5.1_H5.1_A5.1_[A7C]_F5.1_[T8C]_[T9C]_T5.1]
Second: UCUCUUUGUAAAUCACUCUCUU (ssRNA) [Ic_S1_P5E.1_K5.1_C5.1_H5.1_A5.1_[T5A]_[T6A]_[A7T]_F5.1_[T8C]_[T9A]_[A10C]_T5.1]
The Kd of the first is 9.3-fold higher: 587 nM for the first, 63.1 nM for the second. The second binds more tightly here.

Going from UCUCUUUGUAUUUUCGUCUCUU (ssRNA) [Ic_S1_P5E.1_K5.1_C5.1_H5.1_A5.1_[A7T]_F5.1_[T9C]_[A10G]_T5.1] to UCUCUUUGUAUUGUCUUCUCUU (ssRNA) [Ic_S1_P5E.1_K5.1_C5.1_H5.1_A5.1_[A7G]_F5.1_[T9C]_[A10T]_T5.1], the Kd rises from 37.6 nM to 101 nM (2.7-fold).

Going from UCUCUUUGUACCCUAGUCUCUU (ssRNA) [Ic_S1_P5E.1_K5.1_C5.1_H5.1_A5.1_[T5C]_[T6C]_[A7C]_F5.1_[T9A]_[A10G]_T5.1] to UCUCUUUGUAUGGCUGUCUCUU (ssRNA) [Ic_S1_P5E.1_K5.1_C5.1_H5.1_A5.1_[T6G]_[A7G]_F5.1_[T8C]_[A10G]_T5.1], the Kd rises from 4.32 nM to 2120 nM (490-fold).

First: UCUCUUUGUAUGUUUCUCUU (ssRNA) [Ic_S1_P3E.1_K3.1_C3.1_H3.1_A3.1_[A6G]_F3.1_[A8T]_T3.1]
Second: UCUCUUUGUACCAUACUCUCUU (ssRNA) [Ic_S1_P5E.1_K5.1_C5.1_H5.1_A5.1_[T5C]_[T6C]_F5.1_[T9A]_[A10C]_T5.1]
The Kd of the first is 31-fold higher: 49.3 nM for the first, 1.59 nM for the second.

First: UCUCUUUGUAAGUAUAUCUCUU (ssRNA) [Ic_S1_P5E.1_K5.1_C5.1_H5.1_A5.1_[T5A]_[T6G]_[A7T]_F5.1_[T8A]_T5.1]
Second: UCUCUUUGUAUACCACUCUCUU (ssRNA) [Ic_S1_P5E.1_K5.1_C5.1_H5.1_A5.1_[T6A]_[A7C]_F5.1_[T8C]_[T9A]_[A10C]_T5.1]
The Kd of the first is 4.6-fold higher: 95 nM for the first, 20.7 nM for the second. The second binds more tightly here.

UCUCUUUGUAACUGACUCUCUU (ssRNA) [Ic_S1_P5E.1_K5.1_C5.1_H5.1_A5.1_[T5A]_[T6C]_[A7T]_F5.1_[T8G]_[T9A]_[A10C]_T5.1] and UCUCUUUGUACCUGCCUCUCUU (ssRNA) [Ic_S1_P5E.1_K5.1_C5.1_H5.1_A5.1_[T5C]_[T6C]_[A7T]_F5.1_[T8G]_[T9C]_[A10C]_T5.1] are within 1.5-fold of each other in Kd: 448 nM for the first, 353 nM for the second.

Going from UCUCUUUGUACGUAAUUCUCUU (ssRNA) [Ic_S1_P5E.1_K5.1_C5.1_H5.1_A5.1_[T5C]_[T6G]_[A7T]_F5.1_[T8A]_[T9A]_[A10T]_T5.1] to UCUCUUUGUACAUGUUUCUCUU (ssRNA) [Ic_S1_P5E.1_K5.1_C5.1_H5.1_A5.1_[T5C]_[T6A]_[A7T]_F5.1_[T8G]_[A10T]_T5.1], the Kd falls from 126 nM to 27.2 nM (4.6-fold).

Going from UCUCUUUGUAGCAGCUUCUCUU (ssRNA) [Ic_S1_P5E.1_K5.1_C5.1_H5.1_A5.1_[T5G]_[T6C]_F5.1_[T8G]_[T9C]_[A10T]_T5.1] to UCUCUUUGUACGAACCUCUCUU (ssRNA) [Ic_S1_P5E.1_K5.1_C5.1_H5.1_A5.1_[T5C]_[T6G]_F5.1_[T8A]_[T9C]_[A10C]_T5.1], the Kd falls from > 2300 nM to 1700 nM. The second binds more tightly here.

First: UCUCUUUGUAUGUCCUUCUCUU (ssRNA) [Ic_S1_P5E.1_K5.1_C5.1_H5.1_A5.1_[T6G]_[A7T]_F5.1_[T8C]_[T9C]_[A10T]_T5.1]
Second: UCUCUUUGUAAUCCUUUCUCUU (ssRNA) [Ic_S1_P5E.1_K5.1_C5.1_H5.1_A5.1_[T5A]_[A7C]_F5.1_[T8C]_[A10T]_T5.1]
The Kd of the first is 7.9-fold lower: 88.1 nM for the first, 697 nM for the second.

First: UCUCUUUGUAUCCGUGUCUCUU (ssRNA) [Ic_S1_P5E.1_K5.1_C5.1_H5.1_A5.1_[T6C]_[A7C]_F5.1_[T8G]_[A10G]_T5.1]
Second: UCUCUUUGUAGUUAUUUCUCUU (ssRNA) [Ic_S1_P5E.1_K5.1_C5.1_H5.1_A5.1_[T5G]_[A7T]_F5.1_[T8A]_[A10T]_T5.1]
The Kd of the first is 1.5-fold higher: 1060 nM for the first, 705 nM for the second.

UCUCUUUGUAGCGUUAUCUCUU (ssRNA) [Ic_S1_P5E.1_K5.1_C5.1_H5.1_A5.1_[T5G]_[T6C]_[A7G]_F5.1_T5.1] and UCUCUUUGUAGCUGUAUCUCUU (ssRNA) [Ic_S1_P5E.1_K5.1_C5.1_H5.1_A5.1_[T5G]_[T6C]_[A7T]_F5.1_[T8G]_T5.1] are within 1.5-fold of each other in Kd: 36.4 nM for the first, 47.8 nM for the second.

First: UCUCUUUGUACACCAUUCUCUU (ssRNA) [Ic_S1_P5E.1_K5.1_C5.1_H5.1_A5.1_[T5C]_[T6A]_[A7C]_F5.1_[T8C]_[T9A]_[A10T]_T5.1]
Second: UCUCUUUGUACUCCCAUCUCUU (ssRNA) [Ic_S1_P5E.1_K5.1_C5.1_H5.1_A5.1_[T5C]_[A7C]_F5.1_[T8C]_[T9C]_T5.1]
The Kd of the first is 81-fold lower: 16.1 nM for the first, 1300 nM for the second. The first binds more tightly here.

Compared with UCUCUUUGUAAUACUUUCUCUU (ssRNA) [Ic_S1_P5E.1_K5.1_C5.1_H5.1_A5.1_[T5A]_F5.1_[T8C]_[A10T]_T5.1], UCUCUUUGUAUUUUUCUCUU (ssRNA) [Ib_S1_P3E.1_K3.1_C3.1_H3.1_A3.1_[A6T]_F3.1_[A8T]_T3.1] is 8.1-fold lower in Kd: 212 nM for the first, 26.1 nM for the second. The second binds more tightly here.

UCUCUUUGUACCUCGAUCUCUU (ssRNA) [Ic_S1_P5E.1_K5.1_C5.1_H5.1_A5.1_[T5C]_[T6C]_[A7T]_F5.1_[T8C]_[T9G]_T5.1] and UCUCUUUGUAAGUUUGUCUCUU (ssRNA) [Ic_S1_P5E.1_K5.1_C5.1_H5.1_A5.1_[T5A]_[T6G]_[A7T]_F5.1_[A10G]_T5.1] are within 1.5-fold of each other in Kd: 660 nM for the first, 697 nM for the second.

Compared with UCUCUUUGUAAUAUAUUCUCUU (ssRNA) [Ic_S1_P5E.1_K5.1_C5.1_H5.1_A5.1_[T5A]_F5.1_[T9A]_[A10T]_T5.1], UCUCUUUGUAAGCCAUUCUCUU (ssRNA) [Ic_S1_P5E.1_K5.1_C5.1_H5.1_A5.1_[T5A]_[T6G]_[A7C]_F5.1_[T8C]_[T9A]_[A10T]_T5.1] is 140-fold higher in Kd: 2.21 nM for the first, 317 nM for the second.

Compared with UCUCUUUGUACACACGUCUCUU (ssRNA) [Ic_S1_P5E.1_K5.1_C5.1_H5.1_A5.1_[T5C]_[T6A]_[A7C]_F5.1_[T8A]_[T9C]_[A10G]_T5.1], UCUCUUUGUAAGUACGUCUCUU (ssRNA) [Ic_S1_P5E.1_K5.1_C5.1_H5.1_A5.1_[T5A]_[T6G]_[A7T]_F5.1_[T8A]_[T9C]_[A10G]_T5.1] is 18-fold higher in Kd: 122 nM for the first, 2240 nM for the second.

UCUCUUUGUAUGCAGUUCUCUU (ssRNA) [Ic_S1_P5E.1_K5.1_C5.1_H5.1_A5.1_[T6G]_[A7C]_F5.1_[T8A]_[T9G]_[A10T]_T5.1] and UCUCUUUGUAGUUCCUUCUCUU (ssRNA) [Ic_S1_P5E.1_K5.1_C5.1_H5.1_A5.1_[T5G]_[A7T]_F5.1_[T8C]_[T9C]_[A10T]_T5.1] are within 1.5-fold of each other in Kd: 1990 nM for the first, 1760 nM for the second.

First: UCUCUUUGUAAUUUAGUCUCUU (ssRNA) [Ic_S1_P5E.1_K5.1_C5.1_H5.1_A5.1_[T5A]_[A7T]_F5.1_[T9A]_[A10G]_T5.1]
Second: UCUCUUUGUACCUGGCUCUCUU (ssRNA) [Ic_S1_P5E.1_K5.1_C5.1_H5.1_A5.1_[T5C]_[T6C]_[A7T]_F5.1_[T8G]_[T9G]_[A10C]_T5.1]
The Kd of the first is 160-fold lower: 3.08 nM for the first, 489 nM for the second. The first binds more tightly here.

Going from UCUCUUUGUAAACGCCUCUCUU (ssRNA) [Ic_S1_P5E.1_K5.1_C5.1_H5.1_A5.1_[T5A]_[T6A]_[A7C]_F5.1_[T8G]_[T9C]_[A10C]_T5.1] to UCUCUUUGUAUAUAAAUCUCUU (ssRNA) [Ic_S1_P5E.1_K5.1_C5.1_H5.1_A5.1_[T6A]_[A7T]_F5.1_[T8A]_[T9A]_T5.1], the Kd falls from 1060 nM to 8.13 nM (130-fold).

Going from UCUCUUUGUAACCUAGUCUCUU (ssRNA) [Ic_S1_P5E.1_K5.1_C5.1_H5.1_A5.1_[T5A]_[T6C]_[A7C]_F5.1_[T9A]_[A10G]_T5.1] to UCUCUUUGUAGCCUACUCUCUU (ssRNA) [Ic_S1_P5E.1_K5.1_C5.1_H5.1_A5.1_[T5G]_[T6C]_[A7C]_F5.1_[T9A]_[A10C]_T5.1], the Kd rises from 4.64 nM to 48.9 nM (11-fold).
